Source: IntAct's records for PubMed 31515488

B1: Homeobox protein VENTX (Homo sapiens), O95231 (parent)
chain: MRLSSSPPRGPQQLSSFGSVDWLSQSSCSGPTHTPRPADFSLGSLPGPGQTSGAREPPQAVSIKEAAGSSNLPAPERTMAGLSKEPNTLRAPRVRTAFTMEQVRTLEGVFQHHQYLSPLERKRLAREMQLSEVQIKTWFQNRRMKHKRQMQDPQLHSPFSGSLHAPPAFYSTSSGLANGLQLLCPWAPLSGPQALMLPPGSFWGLCQVAQEALASAGASCCGQPLASHPPTPGRPSLGPALSTGPRGLCAMPQTGDAF
partner: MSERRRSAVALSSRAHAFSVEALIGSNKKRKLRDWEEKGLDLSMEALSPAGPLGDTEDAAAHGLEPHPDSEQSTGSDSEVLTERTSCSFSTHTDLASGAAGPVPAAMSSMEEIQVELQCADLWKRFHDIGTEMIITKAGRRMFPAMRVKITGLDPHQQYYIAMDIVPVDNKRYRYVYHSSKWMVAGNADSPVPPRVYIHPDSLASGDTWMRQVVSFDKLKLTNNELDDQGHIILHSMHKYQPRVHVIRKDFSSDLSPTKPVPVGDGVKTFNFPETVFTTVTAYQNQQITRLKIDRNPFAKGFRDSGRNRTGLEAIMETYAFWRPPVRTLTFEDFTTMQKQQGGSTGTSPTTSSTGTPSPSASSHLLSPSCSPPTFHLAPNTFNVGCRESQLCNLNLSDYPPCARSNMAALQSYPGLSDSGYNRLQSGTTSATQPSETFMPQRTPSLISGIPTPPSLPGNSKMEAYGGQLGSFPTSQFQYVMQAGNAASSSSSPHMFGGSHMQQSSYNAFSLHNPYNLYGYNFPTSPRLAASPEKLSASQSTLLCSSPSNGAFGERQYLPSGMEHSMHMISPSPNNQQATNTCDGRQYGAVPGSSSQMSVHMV
B2: DNA topoisomerase 3-beta-1 (Homo sapiens), O95985 (parent)
chain: MKTVLMVAEKPSLAQSIAKILSRGSLSSHKGLNGACSVHEYTGTFAGQPVRFKMTSVCGHVMTLDFLGKYNKWDKVDPAELFSQAPTEKKEANPKLNMVKFLQVEGRGCDYIVLWLDCDKEGENICFEVLDAVLPVMNKAHGGEKTVFRARFSSITDTDICNAMACLGEPDHNEALSVDARQELDLRIGCAFTRFQTKYFQGKYGDLDSSLISFGPCQTPTLGFCVERHDKIQSFKPETYWVLQAKVNTDKDRSLLLDWDRVRVFDREIAQMFLNMTKLEKEAQVEATSRKEKAKQRPLALNTVEMLRVASSSLGMGPQHAMQTAERLYTQGYISYPRTETTHYPENFDLKGSLRQQANHPYWADTVKRLLAEGINRPRKGHDAGDHPPITPMKSATEAELGGDAWRLYEYITRHFIATVSHDCKYLQSTISFRIGPELFTCSGKTVLSPGFTEVMPWQSVPLEESLPTCQRGDAFPVGEVKMLEKQTNPPDYLTEAELITLMEKHGIGTDASIPVHINNICQRNYVTVESGRRLKPTNLGIVLVHGYYKIDAELVLPTIRSAVEKQLNLIAQGKADYRQVLGHTLDVFKRKFHYFVDSIAGMDELMEVSFSPLAATGKPLSRCGKCHRFMKYIQAKPSRLHCSHCDETYTLPQNGTIKLYKELRCPLDDFELVLWSSGSRGKSYPLCPYCYNHPPFRDMKKGMGCNECTHPSCQHSLSMLGIGQCVECESGVLVLDPTSGPKWKVACNKCNVVAHCFENAHRVRVSADTCSVCEAALLDVDFNKAKSPLPGDETQHMGCVFCDPVFQELVELKHAASCHPMHRGGPGRRQGRGRGRARRPPGKPNPRRPKDKMSALAAYFV
partner: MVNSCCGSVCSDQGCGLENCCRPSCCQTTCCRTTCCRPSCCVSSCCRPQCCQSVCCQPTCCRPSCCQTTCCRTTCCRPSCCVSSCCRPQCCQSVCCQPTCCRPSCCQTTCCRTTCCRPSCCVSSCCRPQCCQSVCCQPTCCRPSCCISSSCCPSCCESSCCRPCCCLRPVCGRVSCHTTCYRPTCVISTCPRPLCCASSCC
B3: Notch homolog 2 N-terminal-like protein A (Homo sapiens), Q7Z3S9 (parent)
chain: MCVTYHNGTGYCKCPEGFLGEYCQHRDPCEKNRCQNGGTCVAQAMLGKATCRCASGFTGEDCQYSTSHPCFVSRPCLNGGTCHMLSRDTYECTCQVGFTGKECQWTDACLSHPCANGSTCTTVANQFSCKCLTGFTGQKCETDVNECDIPGHCQHGGTCLNLPGSYQCQCLQGFTGQYCDSLYVPCAPSPCVNGGTCRQTGDFTFECNCLPETVRRGTELWERDREVWNGKEHDEN
partner: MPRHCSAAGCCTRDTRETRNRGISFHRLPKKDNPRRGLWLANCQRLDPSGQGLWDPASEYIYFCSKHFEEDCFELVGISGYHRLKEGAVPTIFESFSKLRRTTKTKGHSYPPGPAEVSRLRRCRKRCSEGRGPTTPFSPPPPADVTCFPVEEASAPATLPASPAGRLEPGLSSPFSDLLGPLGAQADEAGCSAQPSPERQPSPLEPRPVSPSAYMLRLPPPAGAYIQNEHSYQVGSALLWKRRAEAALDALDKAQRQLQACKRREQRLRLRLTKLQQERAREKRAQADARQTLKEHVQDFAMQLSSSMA
B4: U3 small nucleolar RNA-associated protein 14 homolog C (Homo sapiens), Q5TAP6 (parent)
chain: MNVNQVAENLALSHQEELVDLPKNYPLSENEDEGDSDGERKHQKLLEAIISLDGKNRRKLAERSEASLKVSEFSVSSEGSGEKLGLADLLEPVKTSSSLATVKKQLNRVKSKKVVELPLNKEKIEQIHREVAFSKTSQVLSKWDPIILKNQQAEQLVFPLGKEQPAIAPIEHALSGWKARTPLEQEIFNLLHKNKQPVTDPLLTPMEKASLQAMSLEEAKMHRAELQRARALQSYYEAKARKEKKIKSKKYHKVVKKGKAKKALKEFEQLQKVNPTVALEEMEKIENARMMERMSLKHQNSGKWAKSKAIMAKYDLEARQAMQEQLAKNKELTQKLQVASESEEEEGGTEVEELLVPHVANEVQMNVDGPNPWMFRSCTSDTKEAATQEDPEQVPELAAHEVSASEAEERPVAEEEILLREFEERQSLRKRSELNQDAEPASSQETKDSSSQEVLSELRALSQKLKEKHQSRKQKASSEGTVPQVQREEPAPEEAEPLLLQRSERVQTLEELEELGKEDCFQNKELPRPVLEGQQSERTPNNRPDAPKEKKEKEQLINLQNFLTTQSPSVRSLAVPTIIEELEDEEERDQRQMIKEAFAGDDVIRDFLKEKREAVEASKPKDVDLTLPGWGEWGGVGLKPSAKKRRQFLIKAPEGPPRKDKNLPNVIISEKRNIHAAAHQVQVLPYPFTHHRQFERTIQTPIGSTWNTQRAFQKLTTPKVVTKPGHIIKPIKAEDVGYQSSSRSDLPVIQRNPKRITTRHNKEEKL
partner: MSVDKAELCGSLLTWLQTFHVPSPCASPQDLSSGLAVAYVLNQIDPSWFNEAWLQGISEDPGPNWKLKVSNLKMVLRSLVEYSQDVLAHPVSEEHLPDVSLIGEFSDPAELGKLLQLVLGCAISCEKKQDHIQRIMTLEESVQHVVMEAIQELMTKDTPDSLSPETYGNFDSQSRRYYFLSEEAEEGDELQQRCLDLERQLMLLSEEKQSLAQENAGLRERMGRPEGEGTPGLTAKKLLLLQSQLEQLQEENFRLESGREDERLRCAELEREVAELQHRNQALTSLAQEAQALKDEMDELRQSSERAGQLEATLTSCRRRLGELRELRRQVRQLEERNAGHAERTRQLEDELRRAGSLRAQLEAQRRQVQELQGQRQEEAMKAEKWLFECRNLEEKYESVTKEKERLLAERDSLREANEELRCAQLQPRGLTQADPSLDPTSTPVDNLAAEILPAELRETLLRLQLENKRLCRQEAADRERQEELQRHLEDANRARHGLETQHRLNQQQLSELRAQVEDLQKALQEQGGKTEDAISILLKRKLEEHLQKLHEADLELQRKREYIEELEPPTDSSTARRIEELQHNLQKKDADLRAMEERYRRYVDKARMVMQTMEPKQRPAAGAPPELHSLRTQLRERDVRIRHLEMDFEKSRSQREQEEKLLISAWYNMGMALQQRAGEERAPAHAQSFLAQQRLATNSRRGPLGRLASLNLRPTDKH

Variants of: B1
Details: with tbx15_human TBX15, Q96SF7

effect of a mutation on the interaction	Variant
with no effect	M251V

Variants of: B2
Details: with kr412_human KRTAP4-12, Q9BQ66

effect of a mutation on the interaction	Variant
with no effect	R267W

Variants of: B3
Details: with thap7_human THAP7, Q9BT49

effect of a mutation on the interaction	Variant
with no effect	R74Q
with no effect	A115T

Variants of: B4
Details: with hook2_human HOOK2, Q96ED9

Variant	effect of a mutation on the interaction
I170V	with no effect
V570M	with no effect
V109D	with no effect

Other lines, results leading:

effect of a mutation on the interaction	Variant
with no effect	R319H
with no effect	K247E
with no effect	G85V
with no effect	R672H
